Measured values taken from paper PMC6336717 (Frontiers in Immunology, 2018).

T1: FH_(19−20) (C-terminal part of factor H, SCR 19-20), recombinant (human, UniProt P08603 1103-1231)
T1 construct: Complement factor H, human, SCR domains 19-20; also called fragment FH_(19−20); source: recombinant
T1 sequence: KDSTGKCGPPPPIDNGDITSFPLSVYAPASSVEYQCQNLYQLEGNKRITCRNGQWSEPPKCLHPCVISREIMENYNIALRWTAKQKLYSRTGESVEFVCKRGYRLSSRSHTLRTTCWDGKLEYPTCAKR

B1: Sbi-III-IV(K173A) (domain or fragment)
chain: not shown
notes: As used in SPR, ELISA and SAXS; also called K173A Sbi-III-IV; Sbi-III-IV mutant K173A; source: recombinant, from mutated pQE30:sbi-III-IV plasmid (QuikChange), purified
B2: factor H-related protein 1 (FHR-1), recombinant (natural protein, human, UniProt Q03591 19-330, looked up)
chain: EATFCDFPKINHGILYDEEKYKPFSQVPTGEVFYYSCEYNFVSPSKSFWTRITCTEEGWSPTPKCLRLCFFPFVENGHSESSGQTHLEGDTVQIICNTGYRLQNNENNISCVERGWSTPPKCRSTDTSCVNPPTVQNAHILSRQMSKYPSGERVRYECRSPYEMFGDEEVMCLNGNWTEPPQCKDSTGKCGPPPPIDNGDITSFPLSVYAPASSVEYQCQNLYQLEGNKRITCRNGQWSEPPKCLHPCVISREIMENYNIALRWTAKQKLYLRTGESAEFVCKRGYRLSSRSHTLRTTCWDGKLEYPTCAKR
notes: Complement factor H-related protein 1, human; secreted from CHO cells, so probably the mature protein

Key:
[1] = molecular target: T2, Factor H (FH) (human, UniProt P08603 19-1231); assay: SPR; Biacore S200, CM5 chip, 25°C, HBST (10 mM HEPES, 150 mM NaCl, 0.005% Tween 20, pH 7.4); surfaces: 800 RU opsonized C3b, iC3b made from it, or 600 RU amine-coupled C3d; series of Sbi-III-IV WT or K173A (4,050 to 1.8 nM) flowed alone or co-injected with FH, FHR-1, FHR-2, FHR-5 or FH19-20 at 100, 12.5, 20, 25 or 20 nM; conditions: both partners purified
T2 construct: Complement factor H, human, plasma purified; also called plasma purified FH; source: bought: Complement Technologies (plasma purified)

[2] = molecular target: B2; assay: as above; conditions: both partners purified
[3] = molecular target: T1, FH_(19−20) (C-terminal part of factor …); assay: as above; conditions: both partners purified
[4] = molecular target: the molecule itself; assay: SAXS; Sbi-III-IV, C3d and FHR-1 combined 1:1:1 at 45 uM, in PBS; EOM ensemble modelling with P2 symmetry

| Binder | binding result [1] | binding result [2] | binding result [3] | stoichiometry N [4] |
| --- | --- | --- | --- | --- |
| B1 | binds | binds | binds | – |
| B2 | – | – | – | 2 |
